Experimental data published in US12065471B2, “B*44 restricted peptides for use in immunotherapy against cancers and related methods” (Immatics Biotechnologies GmbH, priority 2018, dated 2024).

How the values were obtained:
HLA-B*44:05 = HLA-B*44:05 (Homo sapiens, UniProt P01889, A223V/A65T/A93T/A95T/D201E/D98Y/E176V/E187L/E204Q/E69K/G107R/H137Y/K202T/L105A/L119I/N104T/N87E/Q56L/Q94N/R106L/R155S/R180D/S101N/S121R/S35A/S48T/T118I/V36M/W191S/Y91S); experiment: MHC binding assay (UV-ligand exchange, β2m ELISA, peptide exchange yield); details: binding to HLA-B*44:05
Procedure, shortened: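 Binding is read as exchange yield, i.e. stabilized complex remaining after UV cleavage of a photolabile ligand in the presence of the candidate peptide. Streptavidin-captured monomers (100-fold dilution) are probed with HRP-anti-β2m, 1h at 37° C, TMB, A450. Standard curve: HLA-A*02:01/MLA-001 monomers at 15-500 ng/ml.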

CD8+ T cells = experiment: In vitro immunogenicity: T-cell priming with aAPCs loaded with peptide/MHC and anti-CD28, pMHC multimer readout; format: cell-based, human; details: Table 10b, pMHC multimer readout after T-cell priming
Procedure: After three cycles of stimulation, the detection of peptide-reactive cells was performed by 2D multimer staining with B*44/SEQ ID NO: 469 (FIG. 3A), B*44/SEQ ID NO: 512 (FIG. 3B), B*44/SEQ ID NO: 9 (FIG. 3C), B*44/SEQ ID NO: 11 (D), B*44/SEQ ID NO: 17 (E), B*44/SEQ ID NO: 35 (F) or B*44/SEQ ID NO: 41 (FIG. 3G). Right panels (FIGS. 3A through 3G) show control staining of cells stimulated with irrelevant B*44/peptide complexes. Viable singlet cells were gated for CD8+ lymphocytes. Boolean gates helped excluding false-positive events detected with multimers specific for different peptides.
In order to obtain information regarding the immunogenicity of the TUMAPs of the present invention, the inventors performed investigations using an in vitro T-cell priming assay based on repeated stimulations of CD8+ T cells with artificial antigen presenting cells (aAPCs) loaded with peptide/MHC complexes and anti-CD28 antibody.
In order to perform in vitro stimulations by artificial antigen presenting cells loaded with peptide-MHC complex (pMHC) and anti-CD28 antibody, the inventors first isolated CD8+ T cells from fresh HLA-A*02 leukapheresis products via positive selection using CD8 microbeads (Miltenyi Biotec, Bergisch-Gladbach, Germany) of healthy donors obtained from the University clinics Mannheim, Germany, after informed consent.
PBMCs and isolated CD8+ lymphocytes were incubated in T-cell medium (TCM) until use consisting of RPMI-Glutamax (Invitrogen, Karlsruhe, Germany) supplemented with 10% heat inactivated human AB serum (PAN-Biotech, Aidenbach, Germany), 100 U/ml Penicillin/100 μg/ml Streptomycin (Cambrex, Cologne, Germany), 1 mM sodium pyruvate (CC Pro, Oberdorda, Germany), 20 μg/ml Gentamycin (Cambrex). 2.5 ng/ml IL-7 (PromoCell, Heidelberg, Germany) and 10 U/ml IL-2 (Novartis Pharma, Nümberg, Germany) were also added to the TCM at this step.
Generation of pMHC/anti-CD28 coated beads, T-cell stimulations and readout was performed in a highly defined in vitro system using four different pMHC molecules per stimulation condition and 8 different pMHC molecules per readout condition.
The purified co-stimulatory mouse IgG2a anti human CD28 Ab 9.3 (Jung et al., 1987) was chemically biotinylated using Sulfo-N-hydroxysuccinimidobiotin as recommended by the manufacturer (Perbio, Bonn, Germany). Beads used were 5.6 μm diameter streptavidin coated polystyrene particles (Bangs Laboratories, Illinois, USA).
800.000 beads/200 μl were coated in 96-well plates in the presence of 4×12.5 ng different biotin-pMHC, washed and 600 ng biotin anti-CD28 were added subsequently in a volume of 200 μl. Stimulations were initiated in 96-well plates by co-incubating 1×10^6 CD8+ T cells with 2×10^5 washed coated beads in 200 μl TCM supplemented with 5 ng/ml IL-12 (PromoCell) for 3 days at 37° C. Half of the medium was then exchanged by fresh TCM supplemented with 80 U/ml IL-2 and incubating was continued for 4 days at 37° C. This stimulation cycle was performed for a total of three times. For the pMHC multimer readout using 8 different pMHC molecules per condition, a two-dimensional combinatorial coding approach was used as previously described (Andersen et al., 2012) with minor modifications encompassing coupling to 5 different fluorochromes. Finally, multimeric analyses were performed by staining the cells with Live/dead near IR dye (Invitrogen, Karlsruhe, Germany), CD8-FITC antibody clone SK1 (BD, Heidelberg, Germany) and fluorescent pMHC multimers. For analysis, a BD LSRII SORP cytometer equipped with appropriate lasers and filters was used. Peptide specific cells were calculated as percentage of total CD8+ cells. Evaluation of multimeric analysis was done using the FlowJo software (Tree Star, Oregon, USA). In vitro priming of specific multimer+CD8+ lymphocytes was detected by comparing to negative control stimulations.

Substance | Peptide exchange (MHC class I binding score, peptide exchange yield) (HLA-B*44:05) | Wells positive [%] (CD8+ T cells)
60 (EEAVRSVAF; listed as Homo sapiens) [compound 60] | +++ (>50 = +++) | ++ (20%-49% = ++)
16 (NESDRLVYF; listed as Homo sapiens) [compound 16] | +++ (>50 = +++) | ++ (20%-49% = ++)
28 (QEFPAHSL; listed as Homo sapiens) [compound 28] | +++ (>50 = +++) | + (<20% = +)
83 (TEGGTQKTF; listed as Homo sapiens) [compound 83] | +++ (>50 = +++) | ++++ (>=70% = ++++)
19 (MEHSDENIQFW; listed as Homo sapiens) [compound 19] | ++ (>20% = ++) | ++ (20%-49% = ++)
7 (SESDLVNFI; listed as Homo sapiens) [compound 7] | +++ (>50 = +++) | + (<20% = +)
72 (AEVGDIIKVHF; listed as Homo sapiens) [compound 72] | +++ (>50 = +++) | ++ (20%-49% = ++)
37 (IEQGRVVLW; listed as Homo sapiens) [compound 37] | ++++ (>75% = ++++) | ++++ (>=70% = ++++)
80 (TEQSLYYRQW; listed as Homo sapiens) [compound 80] | +++ (>50 = +++) | ++++ (>=70% = ++++)
422 (EEAQWVRKYF; listed as Homo sapiens) [compound 422] | +++ (>50 = +++) | ++++ (>=70% = ++++)
71 (AEVGDIIKV; listed as Homo sapiens) [compound 71] | ++ (>20% = ++) | ++ (20%-49% = ++)
